Source: paper PMC5467213, “Architecture of the RNA polymerase II-Paf1C-TFIIS transcription elongation complex” (Nature Communications, 2017)

What was measured:
Ctr9-ΔC913 = target: T1, Ctr9-ΔC913 (S. cerevisiae, UniProt P89105 1-913); test: cross-linking; Pol II-Paf1C-TFIIS EC after SEC, 425 μg/ml, 0.5 mM BS3, 30 min, 30 °C; trypsin, Orbitrap Fusion LC-MS/MS, pLink, FDR 1%; settings: both partners purified
T1 construct: Ctr9, S. cerevisiae, variant lacking 164 amino acids at its C terminus (Ctr9-ΔC913); also called Ctr9 (in the Pol II-Paf1C-TFIIS EC); source: E. coli BL21 CodonPlus(DE3)RIL, coexpressed with the other subunits; in lysate and purified as part of Paf1C-Ctr9-ΔC913
T1 sequence (looked up): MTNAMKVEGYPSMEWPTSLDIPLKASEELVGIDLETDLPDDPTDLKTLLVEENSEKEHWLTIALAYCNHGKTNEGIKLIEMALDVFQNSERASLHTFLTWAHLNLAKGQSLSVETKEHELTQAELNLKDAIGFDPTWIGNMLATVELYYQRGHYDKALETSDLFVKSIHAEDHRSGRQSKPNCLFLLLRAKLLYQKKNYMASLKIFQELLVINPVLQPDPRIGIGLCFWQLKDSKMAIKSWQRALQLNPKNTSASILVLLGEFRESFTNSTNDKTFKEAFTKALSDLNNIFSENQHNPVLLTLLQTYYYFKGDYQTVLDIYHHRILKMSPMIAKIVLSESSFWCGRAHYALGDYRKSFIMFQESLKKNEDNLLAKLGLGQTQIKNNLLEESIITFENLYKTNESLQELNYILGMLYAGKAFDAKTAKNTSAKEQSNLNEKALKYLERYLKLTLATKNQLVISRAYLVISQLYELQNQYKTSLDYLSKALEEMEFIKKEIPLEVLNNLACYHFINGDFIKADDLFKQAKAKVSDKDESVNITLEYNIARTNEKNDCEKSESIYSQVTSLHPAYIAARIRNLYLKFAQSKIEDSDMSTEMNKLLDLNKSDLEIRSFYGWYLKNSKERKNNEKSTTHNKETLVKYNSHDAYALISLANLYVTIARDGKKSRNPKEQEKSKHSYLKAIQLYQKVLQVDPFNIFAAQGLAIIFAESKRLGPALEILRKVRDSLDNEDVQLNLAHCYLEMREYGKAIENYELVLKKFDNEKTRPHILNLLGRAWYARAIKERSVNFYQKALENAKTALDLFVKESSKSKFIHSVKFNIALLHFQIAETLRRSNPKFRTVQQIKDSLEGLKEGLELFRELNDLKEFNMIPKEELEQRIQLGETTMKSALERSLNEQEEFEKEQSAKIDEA

Rpb2 (Pol II subunit) = target: T2, Rpb2 (Pol II subunit) (yeast, UniProt P08518 1-1224); test: as above; settings: both partners purified
T2 construct: Rpb2, subunit of yeast Pol II; source: part of purified Pol II
T2 sequence (P08518 whole entry): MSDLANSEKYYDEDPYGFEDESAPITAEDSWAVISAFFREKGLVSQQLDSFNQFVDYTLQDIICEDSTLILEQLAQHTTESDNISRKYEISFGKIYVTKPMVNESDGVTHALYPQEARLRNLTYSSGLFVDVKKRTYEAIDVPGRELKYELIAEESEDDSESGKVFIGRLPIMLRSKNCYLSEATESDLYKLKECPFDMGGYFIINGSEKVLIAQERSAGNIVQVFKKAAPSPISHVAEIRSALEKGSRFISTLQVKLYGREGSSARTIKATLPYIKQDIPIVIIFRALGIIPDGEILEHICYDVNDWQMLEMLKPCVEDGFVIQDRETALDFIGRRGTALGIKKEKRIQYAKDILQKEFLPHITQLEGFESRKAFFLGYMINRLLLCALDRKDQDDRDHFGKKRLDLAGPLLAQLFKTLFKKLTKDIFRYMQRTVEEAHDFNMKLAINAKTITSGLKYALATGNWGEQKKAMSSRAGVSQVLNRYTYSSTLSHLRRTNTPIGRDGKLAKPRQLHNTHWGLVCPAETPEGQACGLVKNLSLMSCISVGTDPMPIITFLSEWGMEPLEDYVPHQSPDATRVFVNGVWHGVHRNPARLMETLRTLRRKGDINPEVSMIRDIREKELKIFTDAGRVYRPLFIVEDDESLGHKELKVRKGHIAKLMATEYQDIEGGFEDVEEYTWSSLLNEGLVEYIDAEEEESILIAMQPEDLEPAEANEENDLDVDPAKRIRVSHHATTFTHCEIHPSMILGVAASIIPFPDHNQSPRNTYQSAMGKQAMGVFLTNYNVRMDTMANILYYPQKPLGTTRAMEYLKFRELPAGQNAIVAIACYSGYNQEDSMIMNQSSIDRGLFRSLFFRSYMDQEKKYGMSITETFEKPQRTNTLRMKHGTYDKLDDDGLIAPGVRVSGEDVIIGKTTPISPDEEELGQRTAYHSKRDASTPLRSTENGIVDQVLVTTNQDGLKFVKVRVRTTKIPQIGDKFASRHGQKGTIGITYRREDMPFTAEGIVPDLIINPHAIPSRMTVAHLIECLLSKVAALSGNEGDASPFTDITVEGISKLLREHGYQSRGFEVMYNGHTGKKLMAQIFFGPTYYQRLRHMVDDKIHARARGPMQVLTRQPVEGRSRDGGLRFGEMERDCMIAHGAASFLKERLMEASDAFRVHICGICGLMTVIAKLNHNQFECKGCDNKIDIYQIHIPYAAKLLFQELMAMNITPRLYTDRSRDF

Rtf1 = target: T3, Rtf1 (S. cerevisiae, UniProt P53064 1-558); test: as above; settings: both partners purified
T3 construct: Rtf1, S. cerevisiae, full length, amplified from genomic DNA; source: E. coli BL21 CodonPlus(DE3)RIL, coexpressed with Cdc73; in lysate and purified as part of Paf1C
T3 sequence (P53064 whole entry): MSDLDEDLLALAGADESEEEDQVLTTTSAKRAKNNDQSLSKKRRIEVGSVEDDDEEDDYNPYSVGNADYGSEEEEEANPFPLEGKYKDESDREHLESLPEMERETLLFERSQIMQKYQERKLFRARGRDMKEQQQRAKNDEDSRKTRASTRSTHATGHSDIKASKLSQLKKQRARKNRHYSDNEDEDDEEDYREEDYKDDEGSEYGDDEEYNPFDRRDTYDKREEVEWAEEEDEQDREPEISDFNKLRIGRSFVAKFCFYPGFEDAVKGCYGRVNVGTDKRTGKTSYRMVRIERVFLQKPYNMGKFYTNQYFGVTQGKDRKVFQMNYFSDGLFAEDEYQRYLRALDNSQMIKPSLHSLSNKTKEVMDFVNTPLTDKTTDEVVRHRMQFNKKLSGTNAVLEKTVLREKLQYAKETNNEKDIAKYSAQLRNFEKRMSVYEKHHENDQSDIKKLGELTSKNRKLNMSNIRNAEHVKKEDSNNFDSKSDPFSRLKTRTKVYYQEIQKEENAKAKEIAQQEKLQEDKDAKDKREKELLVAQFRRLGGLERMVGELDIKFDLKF

Leo1 = target: T4, Leo1 (S. cerevisiae, UniProt P38439 1-464); test: as above; settings: both partners purified
T4 construct: Leo1, S. cerevisiae, open reading frame chemically synthesized (codon-optimised), in pCDFDuet-1; source: E. coli BL21 CodonPlus(DE3)RIL, coexpressed with the other subunits; in lysate and purified as part of Paf1C
T4 sequence (looked up): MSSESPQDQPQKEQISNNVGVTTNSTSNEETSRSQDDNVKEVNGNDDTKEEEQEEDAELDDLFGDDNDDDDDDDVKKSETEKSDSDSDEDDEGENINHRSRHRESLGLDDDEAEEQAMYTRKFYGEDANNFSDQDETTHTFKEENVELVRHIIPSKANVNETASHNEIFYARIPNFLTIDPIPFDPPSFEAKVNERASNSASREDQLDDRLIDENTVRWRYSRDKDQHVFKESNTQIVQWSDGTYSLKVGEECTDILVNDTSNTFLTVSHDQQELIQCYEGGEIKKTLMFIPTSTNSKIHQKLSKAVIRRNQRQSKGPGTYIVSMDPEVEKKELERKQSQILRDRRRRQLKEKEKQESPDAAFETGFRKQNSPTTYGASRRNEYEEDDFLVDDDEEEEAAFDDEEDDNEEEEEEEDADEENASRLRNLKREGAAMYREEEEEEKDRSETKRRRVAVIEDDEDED

[1] = target: T5, Ctr9 (full length, C-terminal hexahistidine tag) (S. cerevisiae, UniProt P89105 1-1077); test: co-purification after coexpression (Ni-NTA, cation exchange, SEC); subunits coexpressed in E. coli from three vectors, cells colysed; Ni-NTA (hexahistidine tag on Ctr9), HiTrap SP cation exchange, Superose 6 size exclusion; SDS-PAGE, subunits confirmed by mass spectrometry; settings: partners not purified
T5 construct: Ctr9, S. cerevisiae, full length, amplified from genomic DNA, in pET24b; source: E. coli BL21 CodonPlus(DE3)RIL, coexpressed with the other subunits; in lysate and purified as part of Paf1C; not shown: His6, C-terminal, kept
T5 sequence (looked up): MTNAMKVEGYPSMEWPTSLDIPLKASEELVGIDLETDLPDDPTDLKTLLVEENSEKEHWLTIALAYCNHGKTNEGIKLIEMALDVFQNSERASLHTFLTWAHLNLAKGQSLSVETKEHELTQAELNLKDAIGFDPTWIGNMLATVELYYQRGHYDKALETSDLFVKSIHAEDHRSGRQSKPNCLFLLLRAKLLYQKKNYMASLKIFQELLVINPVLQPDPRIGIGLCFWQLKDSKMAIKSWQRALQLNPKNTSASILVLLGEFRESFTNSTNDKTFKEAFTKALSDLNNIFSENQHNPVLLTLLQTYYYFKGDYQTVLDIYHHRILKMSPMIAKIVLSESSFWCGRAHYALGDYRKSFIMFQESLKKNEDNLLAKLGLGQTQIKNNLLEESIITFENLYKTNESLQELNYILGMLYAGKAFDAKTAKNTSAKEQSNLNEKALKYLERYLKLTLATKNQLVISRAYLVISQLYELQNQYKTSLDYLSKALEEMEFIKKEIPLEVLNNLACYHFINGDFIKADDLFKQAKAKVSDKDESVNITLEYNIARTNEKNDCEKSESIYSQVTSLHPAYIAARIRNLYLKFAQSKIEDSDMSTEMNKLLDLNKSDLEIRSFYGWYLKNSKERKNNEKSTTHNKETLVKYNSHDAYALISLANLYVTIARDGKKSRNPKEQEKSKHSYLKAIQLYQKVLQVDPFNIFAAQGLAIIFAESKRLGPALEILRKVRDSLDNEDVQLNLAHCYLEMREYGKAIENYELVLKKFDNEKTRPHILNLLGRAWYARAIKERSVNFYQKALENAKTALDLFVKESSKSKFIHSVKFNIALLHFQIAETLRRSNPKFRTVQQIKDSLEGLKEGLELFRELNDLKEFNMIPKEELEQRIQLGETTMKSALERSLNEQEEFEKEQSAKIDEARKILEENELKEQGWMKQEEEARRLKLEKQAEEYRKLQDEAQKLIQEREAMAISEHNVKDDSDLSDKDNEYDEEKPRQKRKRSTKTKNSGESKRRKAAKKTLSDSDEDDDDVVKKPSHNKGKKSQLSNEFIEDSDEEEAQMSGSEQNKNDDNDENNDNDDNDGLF

Measured: binding result

B1: Paf1 (natural protein, S. cerevisiae, UniProt P38351 1-445, looked up)
chain: MSKKQEYIAPIKYQNSLPVPQLPPKLLVYPESPETNADSSQLINSLYIKTNVTNLIQQDEDLGMPVDLMKFPGLLNKLDSKLLYGFDNVKLDKDDRILLRDPRIDRLTKTDISKVTFLRRTEYVSNTIAAHDNTSLKRKRRLDDGDSDDENLDVNHIISRVEGTFNKTDKWQHPVKKGVKMVKKWDLLPDTASMDQVYFILKFMGSASLDTKEKKSLNTGIFRPVELEEDEWISMYATDHKDSAILENELEKGMDEMDDDSHEGKIYKFKRIRDYDMKQVAEKPMTELAIRLNDKDGIAYYKPLRSKIELRRRRVNDIIKPLVKEHDIDQLNVTLRNPSTKEANIRDKLRMKFDPINFATVDEEDDEDEEQPEDVKKESEGDSKTEGSEQEGENEKDEEIKQEKENEQDEENKQDENRAADTPETSDAVHTEQKPEEEKETLQEE
notes: Paf1, S. cerevisiae, open reading frame chemically synthesized (codon-optimised), in pCDFDuet-1; also called polymerase-associated factor 1; source: E. coli BL21 CodonPlus(DE3)RIL, coexpressed with the other subunits; in lysate and purified as part of Paf1C
binds: all assays above
